Results published in patent publication US20200277373A1 (DENALI THERAPEUTICS, published 2020).

T1: Mouse TREM2, on cells (mouse, UniProt Q99NH8 19-227)
T1 construct: whole, on cells; also called mouse TREM2 HEK
T1 sequence (looked up): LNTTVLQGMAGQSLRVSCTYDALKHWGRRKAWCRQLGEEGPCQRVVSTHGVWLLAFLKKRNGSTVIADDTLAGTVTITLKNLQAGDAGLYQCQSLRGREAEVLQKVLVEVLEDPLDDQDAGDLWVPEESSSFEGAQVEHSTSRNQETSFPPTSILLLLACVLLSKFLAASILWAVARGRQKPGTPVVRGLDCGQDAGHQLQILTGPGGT

T2: Human TREM2 protein, on cells (human, UniProt Q9NZC2 19-230)
T2 construct: Wild type human TREM2 expressed with DAP12 on HEK293 cells (clone H6), or endogenous on primary human monocyte-derived macrophages; also called hTREM2-HEK; HEK293-H6
T2 sequence: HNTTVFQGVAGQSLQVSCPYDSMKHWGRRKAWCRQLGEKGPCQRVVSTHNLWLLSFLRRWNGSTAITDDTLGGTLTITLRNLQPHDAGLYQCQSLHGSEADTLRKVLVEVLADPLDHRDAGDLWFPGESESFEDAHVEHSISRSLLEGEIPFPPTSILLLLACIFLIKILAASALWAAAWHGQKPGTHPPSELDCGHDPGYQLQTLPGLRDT

T3: His-tagged TREM2 ECD (ecto domain residues 19-172 of human TREM2, C-terminal 6X-His tag) (human, UniProt Q9NZC2 19-172)
T3 construct: Made in Expi293F cells; the mouse Ig kappa secretion signal is not part of the mature protein; Biotinylated for the Octet binning; also called TREM2-His; TREM2-His protein
T3 sequence: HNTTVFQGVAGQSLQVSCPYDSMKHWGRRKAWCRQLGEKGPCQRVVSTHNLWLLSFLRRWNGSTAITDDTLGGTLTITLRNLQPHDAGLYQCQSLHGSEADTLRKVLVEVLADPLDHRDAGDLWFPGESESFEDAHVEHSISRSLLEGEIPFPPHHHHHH


How the values were obtained:
Mouse TREM2, on cells [1] = target: T1, Mouse TREM2, on cells; test: Table 5, cell binding: Mouse TREM2 HEK
[2] = target: T2, Human TREM2 protein, on cells; test: flow cytometry, HEK293 cells overexpressing human TREM2
Procedure: (§1) After labeling, cells were washed twice with 1×PBS. […] Mixed cell lines were seeded at 300,000 cells per well in a 96-well round-bottom and incubated 20 minutes at room temperature. After incubation, cells were centrifuged and test anti-TREM2 antibodies were added, then incubated for 45 minutes on ice. After incubation, cells were centrifuged and washed with FACS buffer three times.
(§2) The data in Table 2 is presented as fold over binding (FOB).

[3] = target: T3, His-tagged TREM2 ECD (ecto domain …); test: Table 1 Kd; Biacore, TREM2-His analyte (presumed)
Procedure: Anti-murine Fc antibody (obtained from GE Healthcare) was immobilized on the surface of a CM5 chip (obtained from GE Healthcare) through amine-coupling to reach about 6,000 to 8,000 response units (RU). The surface was activated by injection of a mixture of 1-ethyl-3-(3-dimethylaminopropyl)-carbodiimide (EDC) and N-hydroxysuccinimide (NHS), both obtained from GE Healthcare, for 7 minutes. Anti-murine Fc antibody was diluted in sodium acetate (pH 5.0) at 25 μg/mL and injected for 10 minutes at a flow rate of 5 μL/minute, followed by injection of ethanolamine (obtained from GE Healthcare) for 7 minutes.
Purified anti-TREM2 hybridoma (20 μg/mL) was captured to reach 1000-1500 RU. A range of serially-diluted TREM2-His protein (e.g., 3.4 nM to 300 nM) was injected at a flow rate of 30 μL/minute, using either single-cycle kinetics methods. Sensorgrams were fitted using a 1:1 Langmuir model to estimate kₒₙ and koff.

Mouse TREM2, on cells [4] = target: T1, Mouse TREM2, on cells; test: flow cytometry, 293F cells overexpressing mouse TREM2
Procedure: as §1, §2

[5] = target: T2, Human TREM2 protein, on cells; test: cell-based or functional assay
[6] = target: T3, His-tagged TREM2 ECD (ecto domain …); test: Biacore T200, antibody captured, antigen injected, 1:1 model
Procedure: To measure TfR binding, anti-human-Fab was immobilized on a CM5 chip, and the TREM2/TfR-binding protein was captured. Full-length human TfR or human TfR apical domain at serial dilution (e.g., concentrations of 1-1000 nM) was flowed over the chip (180 second association time) and then allowed to dissociate. Fitting was performed using a 1:1 binding model. To measure TREM2 binding, anti-human-Fc antibody was immobilized on a CM5 chip, and the TREM2/TfR-binding protein was captured. A range of concentrations of recombinant TREM2-His protein were flowed over the chip, and allowed to associate and dissociate. The resulting sensograms were fitted using a 1:1 Langmuir model to estimate kₒₙ and koff (FIG. 10).
Biacore Series S CM5 sensor chips were immobilized with a mixture of two monoclonal mouse anti-Fab antibodies (Human Fab capture kit from GE Healthcare). Serial 3-fold dilutions of each antigen were injected at a flow rate of 30 μL/min. The binding of the antigens to captured antibody was monitored for 30 to 180 seconds and then their dissociation was monitored for 30-300 seconds in HBS-EP+running buffer (GE, # BR100669). Binding response was corrected by subtracting the RU from a blank flow cell. A 1:1 Languir model of simultaneous fitting of kₒₙ and koff was used for kinetics analysis.

Binder | binding result (Mouse TREM2, on cells [1]) | FOB (fold over binding) [2] [fold] | Kd [3] [nM] | FOB (fold over binding) (Mouse TREM2, on cells [4]) [fold] | pSyk FOB (30 nM Ab) [5] [fold over background] | Kd [6] [nM] | koff [6] [s⁻¹] | kon [6] [M⁻¹ s⁻¹]
21D4.D1 (antibody, V domains shown, Mouse hybridoma antibody, Ig2a, k; also called RS8.21D4.D1) VH: QVQLQQSGADLLRPGVSVKISCKGSGYTFTDHAMHWVKQSHAESLEWIGVISTYSGDTGYNQKFKGKATMTVDKSSSTAYLELARLTSEDSAIYYCAREGHYDDAMDYWGQGTSVTVSS VL: not shown | no binding | 12.3 | 1.82 | 4 |  |  |  | 
51D4 (antibody, IgG2a, V domains shown, Mouse hybridoma antibody, IgG2a, k; also called 51D4.A1; RS8.51D4.A1) VH: QVHLQQSGPEVVRPGVSVKISCKGSGYTFTDYGMHWVKQSHAKSLEWIGVISTYNGNTSYNQKYKGKATVTVDKPSSTAYMELVRLTSEDSAIYYCARDFGYVPFDYWGQGTTLTVSS VL: not shown | no binding | 7.6 | 2.67 | 1.3 | 1.12 |  |  | 
7B10.A2 (antibody, V domains shown) VH: EVQLQQSGPELVKPGASVKMSCKASGYTFTDYNMHWVKQSHGKSLEWIGYINPNNGGTTYNQKFKGKATLTVNKSSSTAYMELRSLTSEDSAVYYCATYNNHYFDSWGQGTTLTVSS VL: DIQMTQTTSSLSASLGDRVTISCSASQGISNYLNWYQQKPDGTVKLLIYYTSNLHSGVPSRFSGSGSGTDYSLTISNLEPEDIATYYCQQYSNLPYTFGGGTKLEIK |  |  |  |  | 6.89 |  |  | 
3D3.A1 (antibody, V domains shown, Mouse hybridoma antibody, Ig2a, k; also called RS8.3D3.A1) VH: EVQLQQSGPELVKPGASVKISCKTSGYTLSEYTMHWVIQSHGKSLEWIGGVIPNSGGTSYNQKFRDKASLTVDKSSSTAYLELRSLTSEDSAVYYCARGDDSYRRGYALDYWGQGTSVTVSS VL: DIVMSQSPSSLAVSVGEKVTMSCKSSQSLLYSSNQKSYLAWYQQKPGQSPKLLIYWASTRESGVPDRFRGSGSGTDFTLTISSVKAEDLAVYYCQQYFSYPPTFGGGTKLEIK |  | 11.7 | 7.43 | 8.4 | 10.3 | 40 | 0.019 | 480000

Now from value to binder:

binding result (Mouse TREM2, on cells [1]) | FOB (fold over binding) [2] [fold] | Kd [3] [nM] | FOB (fold over binding) (Mouse TREM2, on cells [4]) [fold] | pSyk FOB (30 nM Ab) [5] [fold over background] | Kd [6] [nM] | koff [6] [s⁻¹] | kon [6] [M⁻¹ s⁻¹] | Binder
no binding | 11.5 | 2.41 | 1.7 | 5.02 |  |  |  | 57D7.A1 (antibody, V domains shown, Mouse hybridoma antibody, Ig2a, k; also called RS8.57D7.A1) VH: QVQLKESGPGLVAPSQSLSITCTVSGFSLSRYSVYWVRQPPGKGLEWLGMIWGGGNTDYNSALKSRLSISKDNSKSQVFLKMNSLQTDDSAMYYCVQYGGMDYWGQGTSVTVSS VL: DVLMTQTPLSLPVSLGDQASISCRSSQSIVHSNGNTYLEWYLQKPGQSPKLLIYKVSNRFSGVPDRFSGSGSGTDFTLKISRVEAEDLGVYYCFQGSHVPYTFGGGTKLEIK
no binding | 10.6 | 17 | 3.5 | 7.17 |  |  |  | 42E8.H1 (antibody, V domains shown, Mouse hybridoma antibody, Ig2a, k; also called RS8.42E8.H1) VH: DVQLQESGPGLVKPSQSLSLTCTVTGYSITSDYAWNWIRQFPGNKLEWMGYINYSGRTIYNPSLKSRISITRDTSKNHFFLQLISVTTEDTATYYCARWNGNYGFAYWGQGTLVTVSA VL: DVVMTQNPLSLPVSLGDQASISCRSSQSLVHINGNTYLHWYLQKPGQSPKLLIYKVSNRFSGVPDRFSGSGSGTDFTLKISRVEAEDLGVYFCSQTTHALFTFGSGTKLEIK
no binding | 10.3 | 12.8 | 1.5 | 4.67 |  |  |  | 26E2.A3 (antibody, V domains shown, Mouse hybridoma antibody, Ig2a, k; also called RS8.26E2.A3) VH: QVHLQQSGSELRSPGSSVKLSCKDFDSEVFPISYMSWIRQKPGHGFEWIGDILPSIGGRIYGVKFEDRATLDADTVSNTAYLELNSLTSEDSAIYYCARKDYGSLAYWGQGTLVTVSA VL: DVVMTQTPLSLPVSLGDQASISCRSSQSLVHINGNTYLQWFLQKPGQSPKLLIYKVSNRFSGVPDRFSGSGSGTAFTLKISRVEAEDLGVYFCSQSTHVPYTFGGGTKLEIK
no binding | 4.9 | 15 | 2.8 | 1.73 |  |  |  | 26D2.D1 (antibody, IgG2a, V domains shown, Mouse hybridoma antibody, IgG2a, k; also called RS8.26D2.D1) VH: EVQLQQSGPELVKPGASVKMSCKASGYTFTSYVMHWVKQKPGQGLEWIGYINPYTDGTKYNEKFKGKATLTSDKSSSTAYMDLSSLTSEDSAVYYCARGEVRRYALDYWGQGTSVTVSS VL: DIQMTQSSSSFSVSLGDRVTITCKASEDIYNRLAWYQQKPGNAPRLLISGATSLETGVPSRFSGSGSGKDYTLSITSLQTEDVATYYCQQYWSTPWTFGGGTKLEIK
no binding | 8.4 | 0.525 | 1.5 | 1.68 |  |  |  | 21D11 (antibody, IgG2a, V domains shown, Mouse hybridoma antibody, IgG2a, k; also called 21D11.B1; RS8.21D11.B1) VH: QVQLQQSGAELARPGASVKLSCKASGYTFTSYWIQWVKQRPGQGLEWIGTIYPGDGDARYTQKFKGKATLTADKSSSTTYMQLNSLASEDSAVYYCARNGITTAGYYAMDYWGQGTSVTVSS VL: DIQMTQSPASLSVSVGETVTITCRASENIYSNLAWYQQKQGRSPQLLVYAATNLADGVPSRFSGSGSGTQYSLKINSLQSEDFGYYYCQHFWGTPYTFGGGTKVEIK
no binding | 1 | 0.898 | 0.8 | 1.23 |  |  |  | 40H3.A4 (antibody, V domains shown, Mouse hybridoma antibody, isotype N.D; also called RS8.40H3.A4) VH: EVQLQQSGAEVVKPGASVKLSCTASGFNIKDTYMHWVKQRPEQGLEWIGRIDPANGNTKYDPKFQGKATITADTSSNTAYLQLSSLTSEDTAVYYCATLFAYWGQGTLVTVSA VL: DIVMTQAAFSNPVTLGTSASISCRSSKSLLHSNGITYLYWYLQKPGQSPQLLIYQMSNLASGVPDRFSSSGSGIDFTLRINRVEAEDVGVYYCAQNLELPTFGSGTKLEIK
